From article PMC11661440, “TNIK: A redox sensor in endothelial cell permeability” (Science Advances, 2024)

Molecular target: the molecule itself
Assay: cross-linking; disulfide-linked species of purified GST-TNIK KD; oxidised in vitro with 50 uM H2O2 at 30°C for 15 min or without H2O2 (air oxidation); nonreducing (-DTT) or reducing (+DTT) SDS-PAGE and Western blotting

B1: Recombinant GST-tagged TNIK kinase domain (human amino acids 1 to 367) (domain or fragment, UniProt Q9UKE5 1-367, looked up)
chain: MASDSPARSLDEIDLSALRDPAGIFELVELVGNGTYGQVYKGRHVKTGQLAAIKVMDVTGDEEEEIKQEINMLKKYSHHRNIATYYGAFIKKNPPGMDDQLWLVMEFCGAGSVTDLIKNTKGNTLKEEWIAYICREILRGLSHLHQHKVIHRDIKGQNVLLTENAEVKLVDFGVSAQLDRTVGRRNTFIGTPYWMAPEVIACDENPDATYDFKSDLWSLGITAIEMAEGAPPLCDMHPMRALFLIPRNPAPRLKSKKWSKKFQSFIESCLVKNHSQRPATEQLMKHPFIRDQPNERQVRIQLKDHIDRTKKKRGEKDETEYEYSGSEEEEEENDSGEPSSILNLPGESTLRRDFLRLQLANKERSEA
notes: Oxidised in vitro with 50 uM H2O2 (30°C, 15 min) or left without H2O2; The disulfide-linked species were seen on nonreducing SDS-PAGE; GST is kept on the protein; also called GST-TNIK KD; TNIK KD; source: bought: Thermo Fisher Scientific, recombinant purified
Q: Does B1 bind?
A: binds
